Experimental data reported in US20220204643A1 (published 2022).
Values belong to the binder of their own block, whether it stands above or below them.

Legend:
[1] = biological target: T1, nudix hydrolase 22, transcript variant 2 (human, UniProt Q9BRQ3 1-303); assay: protein array
T1 construct: on protein array; also called NUDT22
T1 chain: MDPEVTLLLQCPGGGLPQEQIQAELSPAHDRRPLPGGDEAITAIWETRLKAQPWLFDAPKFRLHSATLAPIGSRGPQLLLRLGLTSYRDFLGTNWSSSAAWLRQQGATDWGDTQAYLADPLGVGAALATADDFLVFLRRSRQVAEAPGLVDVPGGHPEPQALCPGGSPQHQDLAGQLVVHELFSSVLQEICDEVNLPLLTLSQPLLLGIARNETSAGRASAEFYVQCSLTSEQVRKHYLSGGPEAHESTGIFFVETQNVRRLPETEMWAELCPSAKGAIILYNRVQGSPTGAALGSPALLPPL

[2] = biological target: T2, HEAT repeat containing 3, transcript variant 1 (human, UniProt Q7Z4Q2 1-680); assay: protein array, with experimental replicate
T2 construct: on protein array; also called HEATR3
T2 sequence: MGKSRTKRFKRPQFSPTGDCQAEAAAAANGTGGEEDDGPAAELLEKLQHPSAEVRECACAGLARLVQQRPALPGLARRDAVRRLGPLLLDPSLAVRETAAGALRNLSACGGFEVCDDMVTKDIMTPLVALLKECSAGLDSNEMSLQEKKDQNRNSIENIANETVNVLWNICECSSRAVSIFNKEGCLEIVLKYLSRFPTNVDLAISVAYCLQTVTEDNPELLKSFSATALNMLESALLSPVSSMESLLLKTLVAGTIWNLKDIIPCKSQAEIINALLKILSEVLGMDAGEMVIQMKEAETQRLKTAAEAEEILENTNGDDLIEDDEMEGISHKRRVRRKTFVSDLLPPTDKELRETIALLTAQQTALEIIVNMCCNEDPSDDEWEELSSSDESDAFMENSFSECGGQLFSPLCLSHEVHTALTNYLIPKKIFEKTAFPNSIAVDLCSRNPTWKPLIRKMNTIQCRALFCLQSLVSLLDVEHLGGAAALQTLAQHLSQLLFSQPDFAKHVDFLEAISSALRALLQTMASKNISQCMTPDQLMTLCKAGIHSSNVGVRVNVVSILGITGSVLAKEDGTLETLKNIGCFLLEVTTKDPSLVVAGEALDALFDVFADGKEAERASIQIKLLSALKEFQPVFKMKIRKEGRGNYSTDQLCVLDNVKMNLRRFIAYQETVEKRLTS

[3] = biological target: T3, sorting nexin 1, transcript variant 1 (human, UniProt Q13596 1-522); assay: protein array
T3 construct: on protein array; also called SNX1

[4] = biological target: T4, CRK like proto-oncogene, adaptor protein, transcript variant 1 (human, UniProt P46109 1-303); assay: protein array, with experimental replicate
T4 construct: on protein array

[5] = biological target: T5, grancalcin, transcript variant 4 (human, UniProt P28676 1-217); assay: protein array
T5 construct: on protein array; also called GCA
T5 sequence: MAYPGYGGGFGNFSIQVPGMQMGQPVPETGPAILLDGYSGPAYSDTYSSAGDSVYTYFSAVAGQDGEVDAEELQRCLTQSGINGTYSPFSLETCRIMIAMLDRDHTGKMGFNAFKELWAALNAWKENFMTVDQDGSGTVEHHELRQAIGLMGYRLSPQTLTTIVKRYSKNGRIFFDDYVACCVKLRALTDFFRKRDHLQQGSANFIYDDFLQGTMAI

[6] = biological target: T6, glucuronidase, beta pseudogene (human); assay: protein array
T6 construct: on protein array; also called BC025996.2_frag
T6 chain: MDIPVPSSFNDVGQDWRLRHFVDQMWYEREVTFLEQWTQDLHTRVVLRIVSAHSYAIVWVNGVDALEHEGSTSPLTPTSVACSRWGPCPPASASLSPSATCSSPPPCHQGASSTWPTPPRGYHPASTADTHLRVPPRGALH

F-box protein 2 = biological target: T7, F-box protein 2 (human, UniProt Q9UK22 1-296); assay: protein array
T7 construct: on protein array; also called FBXO2
T7 sequence: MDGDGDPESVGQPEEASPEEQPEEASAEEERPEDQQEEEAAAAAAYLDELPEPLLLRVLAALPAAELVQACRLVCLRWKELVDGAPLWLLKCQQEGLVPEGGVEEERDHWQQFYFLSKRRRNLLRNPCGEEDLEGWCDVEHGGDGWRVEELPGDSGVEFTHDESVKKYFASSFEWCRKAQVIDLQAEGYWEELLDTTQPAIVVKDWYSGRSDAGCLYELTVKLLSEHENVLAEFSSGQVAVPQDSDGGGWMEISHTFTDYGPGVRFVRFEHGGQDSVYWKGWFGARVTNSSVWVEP

tubulin gamma 1 = biological target: T8, tubulin gamma 1 (human, UniProt P23258 1-451); assay: protein array
T8 construct: on protein array; also called TUBG1

[7] = biological target: T9, Rna polymerase iii subunit g (human, UniProt O15318 1-223); assay: protein array
T9 construct: on protein array; also called POLR3G
T9 sequence: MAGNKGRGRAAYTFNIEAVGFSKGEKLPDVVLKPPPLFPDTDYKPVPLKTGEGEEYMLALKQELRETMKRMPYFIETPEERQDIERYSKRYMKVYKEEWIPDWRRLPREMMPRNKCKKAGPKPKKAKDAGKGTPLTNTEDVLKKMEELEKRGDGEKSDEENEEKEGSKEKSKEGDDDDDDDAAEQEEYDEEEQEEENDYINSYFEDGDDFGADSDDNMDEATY

DEAD-box helicase 53 = biological target: T10, DEAD-box helicase 53 (human, UniProt Q86TM3 1-631); assay: protein array
T10 construct: on protein array; also called DDX53

[8] = biological target: T11, Vezatin, adherens junctions transmembrane protein (human, UniProt Q9HBM0 56-779 at identity 0.99)); assay: protein array
T11 construct: on protein array; also called VEZT
T11 chain: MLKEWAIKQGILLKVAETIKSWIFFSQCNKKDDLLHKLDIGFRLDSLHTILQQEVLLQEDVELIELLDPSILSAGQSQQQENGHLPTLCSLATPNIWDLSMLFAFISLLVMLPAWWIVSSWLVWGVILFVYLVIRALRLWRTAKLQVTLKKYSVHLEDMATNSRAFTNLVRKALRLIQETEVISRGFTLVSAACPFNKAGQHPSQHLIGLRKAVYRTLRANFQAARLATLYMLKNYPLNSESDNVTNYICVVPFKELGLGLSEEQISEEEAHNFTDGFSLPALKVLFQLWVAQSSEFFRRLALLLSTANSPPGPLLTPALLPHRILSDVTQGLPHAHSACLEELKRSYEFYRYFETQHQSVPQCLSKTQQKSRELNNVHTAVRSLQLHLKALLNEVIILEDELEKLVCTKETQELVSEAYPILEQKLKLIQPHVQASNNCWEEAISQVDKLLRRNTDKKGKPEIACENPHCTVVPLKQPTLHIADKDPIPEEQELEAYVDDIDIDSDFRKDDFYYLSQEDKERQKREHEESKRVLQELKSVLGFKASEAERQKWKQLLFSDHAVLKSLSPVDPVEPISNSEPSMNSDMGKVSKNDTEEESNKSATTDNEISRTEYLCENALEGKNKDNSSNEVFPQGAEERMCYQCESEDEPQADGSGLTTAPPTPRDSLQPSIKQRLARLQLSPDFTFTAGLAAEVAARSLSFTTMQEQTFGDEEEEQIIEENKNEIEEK

T10 sequence (Q86TM3 other isoform, or with tags, fused parts or gaps limits assumed): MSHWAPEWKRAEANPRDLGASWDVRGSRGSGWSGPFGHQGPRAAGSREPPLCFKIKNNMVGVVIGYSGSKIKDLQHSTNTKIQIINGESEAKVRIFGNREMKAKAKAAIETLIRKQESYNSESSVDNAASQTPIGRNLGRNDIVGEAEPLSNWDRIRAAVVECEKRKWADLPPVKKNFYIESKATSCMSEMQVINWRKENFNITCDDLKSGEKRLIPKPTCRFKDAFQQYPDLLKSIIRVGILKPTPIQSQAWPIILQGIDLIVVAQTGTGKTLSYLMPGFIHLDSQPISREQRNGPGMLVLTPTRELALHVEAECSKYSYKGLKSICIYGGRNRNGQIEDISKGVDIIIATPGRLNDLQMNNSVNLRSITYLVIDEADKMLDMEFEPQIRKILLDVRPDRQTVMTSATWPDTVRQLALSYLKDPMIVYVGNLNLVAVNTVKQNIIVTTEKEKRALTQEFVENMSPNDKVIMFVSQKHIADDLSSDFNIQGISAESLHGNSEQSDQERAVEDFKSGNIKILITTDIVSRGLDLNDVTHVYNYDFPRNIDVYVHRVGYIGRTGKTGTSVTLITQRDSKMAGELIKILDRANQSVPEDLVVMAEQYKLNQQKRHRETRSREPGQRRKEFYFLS
T8 sequence (P23258 whole entry): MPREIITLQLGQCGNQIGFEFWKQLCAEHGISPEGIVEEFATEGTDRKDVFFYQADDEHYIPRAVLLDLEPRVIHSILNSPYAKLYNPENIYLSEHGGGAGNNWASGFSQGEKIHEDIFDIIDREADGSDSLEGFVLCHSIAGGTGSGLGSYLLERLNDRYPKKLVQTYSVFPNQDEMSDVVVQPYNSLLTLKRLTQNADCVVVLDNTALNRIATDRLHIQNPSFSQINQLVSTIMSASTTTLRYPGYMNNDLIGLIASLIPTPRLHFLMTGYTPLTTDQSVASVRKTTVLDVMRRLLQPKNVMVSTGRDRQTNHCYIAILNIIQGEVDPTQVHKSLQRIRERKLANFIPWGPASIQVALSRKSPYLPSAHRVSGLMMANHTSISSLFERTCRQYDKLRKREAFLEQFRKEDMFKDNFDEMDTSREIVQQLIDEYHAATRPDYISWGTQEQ
T4 sequence (P46109 whole entry, change not shown): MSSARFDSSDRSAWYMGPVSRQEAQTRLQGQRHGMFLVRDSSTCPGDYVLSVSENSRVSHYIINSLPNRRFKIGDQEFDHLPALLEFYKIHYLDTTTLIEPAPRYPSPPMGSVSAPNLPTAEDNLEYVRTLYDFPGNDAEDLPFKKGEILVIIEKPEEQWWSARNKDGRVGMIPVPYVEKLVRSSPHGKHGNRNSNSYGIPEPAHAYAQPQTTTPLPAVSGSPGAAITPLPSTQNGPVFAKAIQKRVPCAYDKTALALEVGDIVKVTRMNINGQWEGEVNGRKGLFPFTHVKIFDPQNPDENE
T3 sequence (Q13596 whole entry, change not shown): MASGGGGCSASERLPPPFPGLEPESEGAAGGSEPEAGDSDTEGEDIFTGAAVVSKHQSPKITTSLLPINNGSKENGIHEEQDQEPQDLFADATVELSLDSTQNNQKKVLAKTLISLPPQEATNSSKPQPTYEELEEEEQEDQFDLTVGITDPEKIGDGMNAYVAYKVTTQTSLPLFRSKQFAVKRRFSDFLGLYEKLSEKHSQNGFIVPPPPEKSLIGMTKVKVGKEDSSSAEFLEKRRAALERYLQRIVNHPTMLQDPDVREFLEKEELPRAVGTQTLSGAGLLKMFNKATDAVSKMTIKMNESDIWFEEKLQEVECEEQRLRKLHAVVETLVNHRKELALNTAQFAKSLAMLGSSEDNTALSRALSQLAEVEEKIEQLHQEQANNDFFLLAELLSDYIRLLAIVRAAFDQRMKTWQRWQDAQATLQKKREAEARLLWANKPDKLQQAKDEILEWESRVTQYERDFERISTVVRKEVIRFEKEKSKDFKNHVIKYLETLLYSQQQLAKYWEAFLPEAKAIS

B1: TOVA1007 (antibody, V domains shown)
VH: PVQLQESGPGLVNPSQTLSLTCTVSGGSISSGGYCWSWVRQHPGKGLEWIGCIYYIGTTYYMRSLKSRLIISIDTSKNQFSLKLTSVTAADSAVYYCARGGELLGGFGYSGMDVWGQGTTVTVSS
VL: not shown
notes: VH/VL tied via antigen in summary, not by name in this stretch
binding result [1]: binds

B3: TPAN1004 (antibody, V domains shown)
VH: QIQLVQSGAEVKKPGASVKVSCKTSGYTFTHYGVAWVRQAPGQGPEWMGWISPYNGNIEYGQKFQGRVTMTTDTSTNTAYMELRSLRYDDTAVYYCARDLDEINSSWLDPWGQGTLIIVSP
VL: EIVLTQSPATLSLSPGERATLSCRASQSVSSNYLAWYQQKPGQAPRLLIHGASSRATGFPDRFSGSGSGTDFTLTINRLEPEDFAVYYCQQYGTSPQTFGQGTKVEIKR
notes: as for B1
binding result [3]: binds

B6: TBRE1006 (antibody, V domains shown)
VH: QVQLVQSGAEVKKPGASVKVSCKASGYIFTSYAIHWVRQAPGQRLEWMGWINAGNGNTKYSQKFQGRVTITRDTSANTAYMELSSLRSEDTAIYYCARDIAVAITNYFGSWGQGTLVTVSS
VL: EIVLTQSPATLSLSPGERATLSCRASQSVGSYLAWYQQKPGQAPRLLIYDASNRATGIPARFSGSGSGTDFTLTISSLEPEDFAVYYCQQGSNWLALTFGGGTKVEIKR
notes: VH/VL only
binding result [6]: binds

B7: TPAN1007 (antibody, V domains shown)
VH: PVQLVQSGAEVKKPGESLKISCQGSGYNFSRYWIGWVRQMPGKGLEWMGVVFPGDSDIRYSLSFQGHITIYADNSISTAYLQWSSLKASDTAIYYCATTSTMPMPTRGRDWFDPWGQGTLVTVSS
VL: PSVLTQPPSVSGAPGQRVTISCTGSSSNIGAGYDVHWYQQLPGTAPKLLIYANTNRPSGVPDRFSGSKSGTSASLAITGLQAEDEADYYCQSYDNSLSGGVFGGGTKLTVLG
notes: as for B1
binding result (F-box protein 2): binds | binding result (tubulin gamma 1): binds

B9: TOVA1005 (antibody, V domains shown)
VH: QITLKESGPTLVKPTQTLTLTCTFSGFSLSTNGVGVGWIRQPPGKALEWLALINWDDDKRYSPSLKSRLTITKDTSKNQVVLTMTNLDPVDTATYYCVHARDDYGDSAWSTGPVWGQGTLVTVSS
VL: DFLLTQPHSVSESPGKTVTISCTRSSGSIASNYVQWYQQRPGSSPSTVIYEDHQRPSGVPGRFSGSIDSSSNSASLTISGLKTEDEADYFCQSSDSNNHVVFGGGTKLTVLG
notes: as for B1
binding result (DEAD-box helicase 53): binds | binding result [8]: binds

Other lines, results leading:

binding result [2]: binds
B2: TOVA1004 (antibody, V domains shown)
VH: EVQLVESGGGLVKPGGSLRLSCAASGFTFSSYSMNWVRQAPGKGLEWVSSISSSSSYIYYADSVKGRFTISRDNAKNSLYLQMNSLRAEDTAVYYCARDRGVVVVAATPYYYGMDVWGQGTTVTVSS
VL: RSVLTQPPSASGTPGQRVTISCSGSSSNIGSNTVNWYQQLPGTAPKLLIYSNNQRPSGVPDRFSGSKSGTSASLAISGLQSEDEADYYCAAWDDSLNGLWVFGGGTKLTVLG
notes: as for B1

binding result [4]: binds
B4: TPAN1006 (antibody, V domains shown)
VH: QVQLVQSGAEVKKPGASVKLSCKPSGYTFSSYYIHWLRQAPGQGLEWMGIINPSGGYTSSAQKFQGRVTMTRDTSTSTIYMELSSLRAEDTAVYYCARRGEVGTMVRVFRKPFDYWGQGTLVTVSS
VL: QSVLTQPPSVSGAPGQRVTISCTGSSSNIGAQYDVHWYKVIPGTAPKLLIYGNDNRPSGVPDRFSGSKSGTSASLAITGLQSEDEADYYCQSNDISLSGSVVFGGGTKLTVLG
notes: as for B1

binding result [5]: binds
B5: TPAN1001 (antibody, V domains shown)
VH: QVQLVQSGAEVKKPGSSVKVSCKASRGTFSNHAVSWVRQAPGQGLEWVGGIIPVFGPPNYAQKFRGRVTITADRSTNTAYMELNSLRSEDTAVYYCARTQWGTDVEATNPYYYFMDVWGKGTTVTVSS
VL: EIVLTQSPGTLSLSPGHRATLSCRASQDVASTYLAWYQQKPGQAPRLLIYGASSRATGIPDRFSGSGSGTDFTLTISRLEPEDFAVFYCQYYGGSPGFTFGPGTKVDFKR
notes: as for B1

binding result [7]: binds
B8: TPAN1003 (antibody, V domains shown)
VH: QVQLVQSGAEVKKPGASVKISCQAFGYNFIDNAIHWVRQAPGQRPEWMGWINAGNGNTRYSQNFQGRVTITKVTSASTAYMEMSRLKSEDTAVYFCARSSKWTDWHFDYWGQGTLVTVSS
VL: EIVLTQSPGTLSLSPGETATLSCRASQSVANNYLAWHQQKPGQAPRLLIYGASKRAAGIPDRFSGSGSGTEFTLTISRLEPEDCAVYYCQEYVKSPGFAFGPGTRVDIKR
notes: as for B1
